According to patent publication US20080152587A1:

These substances were tested against mouse uPAR on the surface of NCTC L929 cells (mouse) (UniProt P35456) (assay: FACS, NCTC L929 mouse cells, secondary alone).
mouse uPAR on the surface of NCTC L929 cells (mouse), sequence (P35456 24-298): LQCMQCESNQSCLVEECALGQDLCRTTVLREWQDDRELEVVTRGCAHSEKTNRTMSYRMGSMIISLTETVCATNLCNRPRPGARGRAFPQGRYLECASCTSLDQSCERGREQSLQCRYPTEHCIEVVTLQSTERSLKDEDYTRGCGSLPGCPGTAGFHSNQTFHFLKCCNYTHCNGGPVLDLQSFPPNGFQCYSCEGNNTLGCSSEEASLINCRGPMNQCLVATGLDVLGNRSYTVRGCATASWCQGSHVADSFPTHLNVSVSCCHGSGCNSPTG

| Substance | X Geo mean |
| --- | --- |
| secondary antibody alone, Cy5-labeled goat anti-human IgG Fc | 7.63 |
| secondary antibody alone for rat antibodies | 13.1 |
| secondary antibody alone for mouse antibodies | 3.22 |
